# Results as given in patent publication US20180319855A1, “GENETICALLY MUTATED AEQUORIN-BASED BIOSENSORS WITH EXTRA SENSITIVITY TO CALCIUM AND IMPROVED BIOLUMINESCENCE INTENSITY” (CENTRE NATIONAL DE LA RECHERCHE SCIENTIFIQUE (CNRS), priority 2015, published 2018).
# “And” between values parts separate entries of the source, which are not always exact repeats. Equal entries are not always repeated. Where two headings read alike, the source gives them in different places.
# What was measured:
# [1] = Ca2+ sensitivity curves of reconstituted photoproteins (L/Lmax vs free Ca2+); assay type: biochemical; settings: for EC50: read-out: Calcium sensitivity, EC50
# Procedure: For in vitro reconstitution, the purified and concentrated samples of apoaequorin and redquorin mutant proteins were buffer-exchanged to 50 mM Tris-HCl (pH 7.5), 150 mM NaCl, 10 mM EGTA, 5 mM ß-mercaptoethanol, supplemented with 5 μM CLZ-f or CLZ-native and incubated overnight at 4° C., in the dark. The next day, samples were passed through molecular weight cut-offs (AmiconUitra MWCO, 10K and 50K, from Millipore), then resuspended in Zero-Ca^2+ buffer (30 mM MOPS, 100 mM KCl and 10 mM EGTA, pH 7.2) for calcium affinity, emission decay kinetics and spectral analysis assays. As for in cellulo reconstitution, HEK cells transiently expressing the proteins of apoaequorin and aporedquorin mutants were washed twice with Hank's Balanced Salt Solution (HBSS) and incubated in the dark, with 4 μM of the desired CLZ diluted in OptiMEM I medium (Gibco), for 2-3h at 37° C. and 5% CO2. Cells were washed once and maintained in HBSS at 37° C. for 20 min before the experiment.
# Functional Analysis of Aequorin Mutants and Fusions Ca^2+ Sensitivity Curves.
# Purified and reconstituted samples with CLZ-f or CLZ-native already buffered-exchanged to zero-calcium buffer ensured to minimize calcium contamination that could interfere with the measurements. Fifteen microliter aliquot of photoprotein samples (concentration range, 50 to 90 ng/μl) was placed in a home-made luminometer and mixed with 300 μl solution containing the desired concentration of free-Ca^2+. The solutions of EGTA-buffered with varying free-Ca^2+ prepared according to the manufacturer instruction for the kit (Molecular Probes, Invitrogen). Integration of the luminescence emission (per second) was measured for 20 seconds (background) before injecting a solution with known [free-Ca^2+] and lasted until stable or decaying signal (at final-phase) was obtained. At this point, 400 μl of a saturating calcium solution (30 mM MOPS, 100 mM CaCl2, pH 7.2) was rapidly injected (less than 30 ms) and light integration continued until all aequorin had been consumed and light intensity had gone back to background signal. Luminescence intensity (L) at different [Ca^2+] was taken as the response peak value in case of decaying signal or as the stable value in case of stable emission. Lmax, was measured by integrating all remaining luminescence signal from that moment (L value) to the end of the experiment. The EC50 values were extracted from a sigmoidal dose-response fit (variable slope) using GraphPad Prism software.
# [2] = Thermostability: relative bioluminescence activity after 30 min incubation; assay type: physicochemical; settings: for Thermostability, luminescence activity relative to wt-aequorin: CLZ-f; for less activity compared to wt-aeq (thermostability): after incubation at 30 and 40° C.
# Procedure: Thermostability of aequorin and redquorin mutant with increased affinity for calcium were compared to wt-aequorin (FIG. 5). The purified photoprotein samples were reconstituted with CLZ-f (as detailed earlier) and let to calibrate at room temperature (20-24° C.) for 20 min before taken the first measurement of total counts using saturating calcium solution (50 mM Tris-HCl, 100 mM CaCl2, pH 7.5). Samples were then incubated at two different temperatures (30 to 40° C.) for 30 min, and let equilibrate at room temperature for 15 minbefore taken the second measurement of total counts in the sample. The relative bioluminescence activity at each temperature was calculated by the ratio 2nd counts (at target T° C.)/1st counts (at initial T° C.) multiplied by 100.
# Table 6 highlights the analysis of thermostability data obtained at two temperatures for aequorin and redquorin mutants, as well as CitA and GA. The values represent the degree of change in luminescence activity compared to wt-aeq, at each temperature. All values are relative to wt-aequorin (at each temperature) and were calculated by dividing the obtained data for each mutant/variant by the data for wt-aeq (as reference). The data were taken from FIG. 5.
# [3] = CLZ-f, L/Lmax compared to Aeq-wt
# [4] = aequorin proteins reconstituted with CLZ-f, sigmoidal curve fit, mean ± SD, n at least 3
Molecule,"EC50 ([1]; CLZ-f, redquorin series, CitA, GA) [nM]","Relative intensity at pCa 6.5 ([1]; CLZ-f, relative to Redq)","Relative intensity at pCa 7.2 ([1]; CLZ-f, relative to Redq)","EC50 ([1]; CLZ-native, redquorin series, CitA, GA) [nM]","Relative intensity at pCa 6.5 ([1]; CLZ-native, relative to Redq)","Relative intensity at pCa 7.2 ([1]; CLZ-native, relative to Redq)","Thermostability, luminescence activity relative to wt-aequorin ([2]; 30° C. for 30 min)","Thermostability, luminescence activity relative to wt-aequorin ([2]; 40° C. for 30 min)","Relative intensity at pCa 6.5 [1, 3]","Relative intensity at pCa 7.2 [1, 3]","affinity to calcium group relative to Aeq-wt ([1]; CLZ-f, at pCa 6.5, FIG. 2)","EC50 [1, 4] [nM]",less activity compared to wt-aeq (thermostability) [2]
"Redq/QT + AT: aporedquorin mutant Q159T + A179T (SEQ ID NO:24) (protein, mutant aequorin) MVSKGEEVIKEFMRFKVRMEGSMNGHEFEIEGEGEGRPYEGTQTAKLKVTKGGPLPFAWDILSPQFMYGSKAYVKHPADIPDYKKLSFPEGFKWERVMNFEDGGLVTVTQDSSLQDGTLIYKVKMRGTNFPPDGPVMQKKTMGWEASTERLYPRDGVLKGEIHQALKLKDGGHYLVEFKTIYMAKKPVQLPGYYYVDTKLDITSHNEDYTIVEQYERSEGRHHLFLGHGTGSTGSGSSGTASSEDNNMAVIKEFMRFKVRMEGSMNGHEFEIEGEGEGRPYEGTQTAKLKVTKGGPLPFAWDILSPQFMYGSKAYVKHPADIPDYKKLSFPEGFKWERVMNFEDGGLVTVTQDSSLQDGTLIYKVKMRGTNFPPDGPVMQKKTMGWEASTERLYPRDGVLKGEIHQALKLKDGGHYLVEFKTIYMAKKPVQLPGYYYVDTKLDITSHNEDYTIVEQYERSEGRHHLFLSGFDNPRWIGRHKHMFNFLDVNHNGKISLDEMVYKASDIVINNLGATPEQAKRHKDAVEAFFGGAGMKYGVETDWPAYIEGWKKLATDELEKYAKNEPTLIRIWGDALFDIVDKDQNGAITLDEWKAYTKAAGIIQSSEDCEETFRVCDIDESGTLDVDEMTRQHLGFWYTMDPTCEKLYGGAVP",284 ± 30,25.6,9.0,605 ± 16,18.3,14.1,0.96,1.03,–,–,–,–,–
"Q159T: apoaequorin mutant, glutamine 159 replaced by threonine (SEQ ID NO:6) (protein, mutant aequorin) SKLTSDFDNPRWIGRHKHMFNFLDVNHNGKISLDEMVYKASDIVINNLGATPEQAKRHKDAVEAFFGGAGMKYGVETDWPAYIEGWKKLATDELEKYAKNEPTLIRIWGDALFDIVDKDQNGAITLDEWKAYTKAAGIIQSSEDCEETFRVCDIDESGTLDVDEMTRQHLGFWYTMDPACEKLYGGAVP",–,–,–,–,–,–,0.92,0.96,16 and 16.6,4.8,medium-high to high,249 ± 13,–
"QD + AT: apoaequorin double mutant Q159D + A179T (SEQ ID NO:17) (protein, mutant aequorin) SKLTSDFDNPRWIGRHKHMFNFLDVNHNGKISLDEMVYKASDIVINNLGATPEQAKRHKDAVEAFFGGAGMKYGVETDWPAYIEGWKKLATDELEKYAKNEPTLIRIWGDALFDIVDKDQNGAITLDEWKAYTKAAGIIQSSEDCEETFRVCDIDESGDLDVDEMTRQHLGFWYTMDPTCEKLYGGAVP",–,–,–,–,–,–,1.05,1.07,58.5,60.8,–,216,–
"S157D: apoaequorin mutant, serine 157 replaced by aspartic acid (SEQ ID NO:12) (protein, mutant aequorin) SKLTSDFDNPRWIGRHKHMFNFLDVNHNGKISLDEMVYKASDIVINNLGATPEQAKRHKDAVEAFFGGAGMKYGVETDWPAYIEGWKKLATDELEKYAKNEPTLIRIWGDALFDIVDKDQNGAITLDEWKAYTKAAGIIQSSEDCEETFRVCDIDEDGQLDVDEMTRQHLGFWYTMDPACEKLYGGAVP",–,–,–,–,–,–,0.77,0.71,6.0,2.2,–,322,up to 29%
"QD + ND: apoaequorin double mutant Q159D + N121D (SEQ ID NO:13) (protein, mutant aequorin) SKLTSDFDNPRWIGRHKHMFNFLDVNHNGKISLDEMVYKASDIVINNLGATPEQAKRHKDAVEAFFGGAGMKYGVETDWPAYIEGWKKLATDELEKYAKNEPTLIRIWGDALFDIVDKDQDGAITLDEWKAYTKAAGIIQSSEDCEETFRVCDIDESGDLDVDEMTRQHLGFWYTMDPACEKLYGGAVP",–,–,–,–,–,–,0.81,0.81,29.0,41.7,–,295 ± 17,20%
"QD + AD: apoaequorin double mutant Q159D + A123D (SEQ ID NO:15) (protein, mutant aequorin) SKLTSDFDNPRWIGRHKHMFNFLDVNHNGKISLDEMVYKASDIVINNLGATPEQAKRHKDAVEAFFGGAGMKYGVETDWPAYIEGWKKLATDELEKYAKNEPTLIRIWGDALFDIVDKDQNGDITLDEWKAYTKAAGIIQSSEDCEETFRVCDIDESGDLDVDEMTRQHLGFWYTMDPACEKLYGGAVP",–,–,–,–,–,–,0.97,0.94,26.2,15.0,–,271 ± 15,–
"Q159G: apoaequorin mutant, glutamine 159 replaced by glycine (SEQ ID NO:7) (protein, mutant aequorin) SKLTSDFDNPRWIGRHKHMFNFLDVNHNGKISLDEMVYKASDIVINNLGATPEQAKRHKDAVEAFFGGAGMKYGVETDWPAYIEGWKKLATDELEKYAKNEPTLIRIWGDALFDIVDKDQNGAITLDEWKAYTKAAGIIQSSEDCEETFRVCDIDESGGLDVDEMTRQHLGFWYTMDPACEKLYGGAVP",–,–,–,–,–,–,0.96,0.92,3.3,3.2,–,492 ± 10,–
"N121D: apoaequorin mutant, asparagine 121 replaced by aspartic acid (SEQ ID NO:9) (protein, mutant aequorin) SKLTSDFDNPRWIGRHKHMFNFLDVNHNGKISLDEMVYKASDIVINNLGATPEQAKRHKDAVEAFFGGAGMKYGVETDWPAYIEGWKKLATDELEKYAKNEPTLIRIWGDALFDIVDKDQDGAITLDEWKAYTKAAGIIQSSEDCEETFRVCDIDESGQLDVDEMTRQHLGFWYTMDPACEKLYGGAVP",–,–,–,–,–,–,0.81,0.82,4.9,2.1,–,400 ± 14,19%
